Assay: soluble on expression in E. coli; label from the status in PepcDB or PDB records
In the case of “MSLYIQNLELTSYRNYDHAELQFENKVNVIIGENAQGKTNLMEAIYVLSMAKSHRTSNDKELIRWDKDYAKIEGRVMKQNGAIPMQLVISKKGKKGKVNHIEQQKLSQYVGALNTIMFAPEDLNLVKGSPQVRRRFLDMEIGQVSPVYLHDLSLYQKILSQRNHFLKQLQTRKQTDRTMLDVLTDQLVEVAAKVVVKRLQFTAQLEKWAQPIHAGISRGLEELTLKYHTALDVSDPLDLSKIGDSYQEAFSKLREKEIERGVTLSGPHRDDVLFYVNGRDVQTYGSQGQQRTTALSLKLAEIDLIHEEIGEYPILLLDDVLSELDDYRQSHLLHTIQGRVQTFVTTTSVDGIDHETLRQAGMFRVQNGALVKEGGSHHHHHH”, the “soluble on expression in E. coli” value is reported as “soluble”. In the case of “MSLYLIVGAYPSTPQVMKNIKMTSDALKKKESLICLNVLSKYNPEKHSNTSKRLPVKFFSGVLIVLMNTDNWASLEKRFSSEIANWRSGGNVICIAIGELGKFKGNDTYYLKTLQIALMNVDDNWIPADSSYELTMLNYLHKHERSFIKPLRYDASNNDVFPDFCLTDIGSTELFPIEVFGMDTASYLARKVIKESYYNERYGKDGWASWEAPAGPLPICPIRPAVNYQMLLEGHHHHHH”, the “soluble on expression in E. coli” value is reported as “not soluble”. For “MSLYSDQLVCPAHVPRGSPEGRVDAIAAMVTTRTAVQAPVERRTALFVNGQAWLTAQTTPHDLADWAVGRLCGEGLIAGPEEIAHLAVDEAGPCVHAVLPRVRTPAPPAPVAPGPRVAEAQLLRWMQEMLAQAPLYRATGGMHVAMAVRADSGEQIVREDIGRHQAVDKVLGAARLAGWPPAQVVVLTSGRISAEMCARVARFGAPVCASRTAATDEAWALATRLGMDLVGYVRTAASLIVYTTGNRVARRIEPEGHHHHHH”, the “soluble on expression in E. coli” value was “soluble”. With “MSLYSVISKILNFILVKMSKSLYVIGKDNIPKDSKYVVTCTHESYNEVIMLGMALYPNQIHYMAKKELFKNKWIGKFLTSLNAFPVDRENPGPSTLKRPINLLKDNKTVGIFPTGSRTSQEGAPLKRGASTIAMLSKSPILPVAYVGPTKIHGLLTGQAYINIGKPIDINDLPKDLKRNERIDYITKEIETRTAKLQQELHEIVKSEGHHHHHH” the “soluble on expression in E. coli” value was “soluble”. With “MSMAMSQSNRELVVDFLSYKLSQKGYSWSQFSDVEENRTEAPEGTESEMETPSAINGNPSWHLADSPAVNGATGHSSSLDAREVIPMAAVKQALREAGDEFELRYRRAFSDLTSQLHITPGTAYQSFEQVVNELFRDGVNWGRIVAFFSFGGALCVESVDKEMQVLVSRIAAWMATYLNDHLEPWIQENGGWDTFVELYGNNAAAESRKGQERLEHHHHHH” the “soluble on expression in E. coli” value was “soluble”. In the case of “MSMIDIDPPSFQSPRPIAGDDGNRRTVLYGDYTVFSVFQPVFSVSHRRAIGYHASLRAHDSQGNQVPSHDVFTQAARRGDLLELGRLAESLHLGNFHTFDSHDEWLFLSLHPAALMDTVYGDALLANLKALGLPPQRVVLEVPEQAGGETPRFAAIVDGLRKAGFLIALGGFGAKHSNIDRVWHLHPDIVTLDRGILAQASEHSHLERVLPGLVSLLHESGQLVLMGGITTEREALIALECDVDFVQGQYFAGP”, the “soluble on expression in E. coli” value is reported as “not soluble”. For “MSMLSMDGIVAGGGSSSGGGERSFVLEQKMFNTGPQNKALPTVQSSGSSSNHAPIVGESPLGTVSSTMATGDTGRVGNVTYMSSGMLGATQFMPQNSSHPSTSVMMQQVPPQNGGATRSSPTEMQQCMQAMSEDSIEMRDYNSGVHHMHPHQMQMQQQQQHHQQQYNMSYHNHQQQMQQMHYHQQQQQYQQQQAQHHQMYAPQIQQQQQQPQQQSQQQSAQQPQQSSAALQHVNESSNLSSAGSISDREPEQHGGTPQRPTAPQSSTATDKKTRKRRKAGPTEDQATPKQERKITEFMKVGGEVASGNSVARCLLTEYHQNQGSPKRQPAVQQNGSNSYDSQQQQPQMNQHEMQNSYWGVATPSLGVNNRGTPTPTQQQHYSSDSNSNSNQSPPGQGNQSGRMVRTIDEETQTDSSLSQANPQNADEVAKMNRIIEDHRRQIEELNSKNSLERRKNEASKETIKRLLIDKNQIERKALRDKTAADSPRIGCFKTTRTGDSFRDQWVDGWAFAEMDKKTEQINAERNEIASASALLKKRKPLGIGKEPKRPQAVNSQNDSNGMQPSTSSNTNGDDAIFRRPEEPKEIQYQEYIELDEIYKLRREHLRKEETDLSMEKERLEKEKQHHVRELKRASNESASQFNDHRLLHKRYLMLNLLGKGGFSEVWKAFDIEENRYVACKIHHVNKDWKEEKKANYVKHAMREKDIHKSLDHCRIVKQYDLLTIDNHSFCTVLEYVPGNDLDFYLKQNRSISEKEARSIIMQVVSALVYLNEKSTPIIHYDLKPANILLESGNTSGAIKITDFGLSKIMEGESDDHDLGIELTSQFAGTYWYLPPETFIVPPPKITCKVDVWSIGVIFYQCIYGKKPFGNDLTQQKILEYNTIINAREVSFPSKPQVSSAAQDFIRRCLQYRKEDRADVFELAKHELFRPRGAIRASVAGSVSSPSIPRSPSVNREDDNM”, the “soluble on expression in E. coli” value was “not soluble”. With “MSNAFEYLRTYVESTTETDAAVARAREDAAEFGLPAPDEMTGQLLTTLAATTNGNGSTGAIAITPAAGLVGLYILNGLADNTTLTCIDPESEHQRQAKALFREAGYSPSRVRFLLSRPLDVMSRLANDSYQLVFGQVSPMDLKALVDAAWPLLRRGGALVLADALLDGTIADQTRKDRDTQAARDADEYIRSIEGAHVARLPLGAGLTVVTKALEHHHHHH” the “soluble on expression in E. coli” value was “soluble”. In the case of “MSNDQLKSKLREFFDRQPDQSEKAHQDSKIFEVLYSQFLENQHCIDWNSWKFLEEKHQVTLKDLEPFDKSRFNILNKLAVIKLNGGLGTTMGCSKAKSLVEVREGYTFMDLAVLEHQKMCEAHNVDTPLYLMNSFYTDEDTKKYLAEKGYSNVKTFVQSKCPRLDAETKLPIEDENEDWGDDAWCPPGHGNIFQSLQNSGVLDQLLADGREIIFVSNIDNTGANTDLQIVQLMLDKNVDYIMECTPKTQVDVKGGTLIDIGGRMMHLEMPQVPAENLPDFCSTKVFKIFNTNNIYVNLKAVKKLLPDIKSEIIVNKKTIRSREVLQLEFSIGGCIKNFDNALCVHVERKRFRPVKNLGDLLSLRSTLCDLDHSTFKVHHNHELGAPPVISLDPSIYNSVEVVDLKFPHPLVMDNCSEFAVVGDVTFGKNVKLSGKVTVNGKTESPGVVPDGTVLKDQEYIAE”, the “soluble on expression in E. coli” value is reported as “not soluble”. For “MSNEHTRPPLPPFTRESAIEKVRLAEDGWNTREPEKIALAYTVDTQWRNRAEFANNREEARDFLTRKWKKELDYRLIKELWAFTDNRIAVRYAYEWHDDSGNWFRSYGNENWEFEADGLMHRRFACINDMPIKESERKFHWPLGRRPDDHPGLTELGLLEHHHHHH”, the “soluble on expression in E. coli” value was “not soluble”. In the case of “MSNEMKILLANPRGFCAGVDRAISIVERALELYQPPIYVRHEVVHNRFVVEGLKQRGAIFVEELHEVPDNNIVIFSAHGVSQAVRQEAKQRDLTVFDATCPLVTKVHMEVARASRRNMEVVLIGHAGHPEVEGTMGQYSSETGGMYLVETPADVEKLKAIVKDPSDLHYVSQTTLSVDETADVIEELRRVFPDIQGPRKDDICYATQNRQDAVRELAGDVDVMVVVGSKNSSNSTRLKELAEKLGTPGYLTDCPEDIKPEWFEGKTKVGVTAGASAPEELVNQILERIKELVGARSVDEVLGREENMFFEVPKELQIKQVD”, the “soluble on expression in E. coli” value is reported as “not soluble”. For “MSNIIVLSGSPRKGGNTDLLVDAFVKGAEKSNNVEVVSVAYYKVNPCIGCNSCFDRAGHECFQQDDMQIVYDKLKCADVIVVASPVYFYGVSAQLKAIIDRLHTPMRNDFKVKKLALILVGAAVLPELFDSIKIQYQLVLNFFKLEDAGMVLVRGAKDKGDVRNTDGLDEAYRLGLAME”, the “soluble on expression in E. coli” value was “not soluble”. With “MSNKLETGIQYMQEGNWEEAAKNFTEAIEENPKDALGYINFANLLDVLGDSERAILFYKRALELDDKSAAAYYGLGNVYYGQEQFTEAKAVFEQAMQAGLQSADVTFMLGITHVQLGNDRLALPFLQRATELDENDVEAVFQCGLCFARLEHVQEAKPYFEKVLEMDEEHADAYYNLGVAYVFEENNEKALALFKKATEIQPDHFLAGNGVRLLEQEAE” the “soluble on expression in E. coli” value was “not soluble”. In the case of “MSNSKDLMSEFEKLRQETSKIQYSLIQKLPSEPSSFVENQLLLETQTLCGQLLKNQEEQNILNEKLRNEQKIIKLKHNTEMKSMRDKLETLTTAQAAQKLDFERHFEMMRQSHSAKIVKMERDLRNMKYDLHSLRSDMDSRKNCENRAAPKPEFQIFVKVLGVSYAFKIHREDTVFDIKNDIEHRHDIPQHSYWLSFSGKRLEDHCSIGDYNIQKSSTITMYFRSG”, the “soluble on expression in E. coli” value is reported as “not soluble”. In the case of “MSNSRSILSQPEWRIVDQSSLGPTFHALQSFAMDDTLCTSIGKGESAATMRSWVHHNTIVLGIQDSRLPHLEEGISFLKENNFNVIVRNSGGLAVVLDEGVLNVSLLFQETEKGIDIDLGYDTMWHLIQEMLKDYDVTIEAKEIVGSYCPGSYDLSIRDQKFAGISQRRIRGGVAVQIYLCATGSGSERAALVRDFYNLAIQGEETRFTYPEIVPSTMASLSELLDETITVQDLMMRLLKTLQQFAPKLTPSQLTIDEIPLYETNLQRIIDRNNKALGLEK”, the “soluble on expression in E. coli” value is reported as “not soluble”. With “MSNTERTFIAIKPDGVHRGLVGKIIARFEERGYKLVALKQMTASKAHLEVHYQDLKDKPFFPSLIEYMSSGPVVAMVWQGLDVVKQGRSMLGATNPLASAPGTIRGDFCIQTGRNICHGSDAVDSANREIAHWFKQEEINDYASPFINSWVYE” the “soluble on expression in E. coli” value was “not soluble”. In the case of “MSNVQTSAEREIVDLSHLAFDCGMLGRLKTVSWTPVIAGDSFELDAVGALRLSPLRRGLAIDSKVDFFTFYIPHRHVYGDQWIQFMRDGVNAQPLPSVTCNRYPDHAGYVGTIVPANNRIPKFLHQSYLNIYNNYFRAPWMPERTEANPSNLNEDDARYGFRCCHLKNIWSAPLPPETKLAEEMGIESNSIDIMGLQAAYAQLHTEQERTYFMQRYRDVISSFGGSTSYDADNRPLLVMHTDFWASGYDVDGTDQSSLGQFSGRVQQTFKHSVPRFFVPEHGVMMTLALIRFPPISPLEHHYLAGKSQLTYTDLAGDPALIGNLPPREISYRDLFRDGRSGIKIKVAESIWYRTHPDYVNFKYHDLHGFPFLDDAPGTSTGDNLQEAILVRHQDYDACFQSQQLLQWNKQARYNVSVYRHMPTVRDSIMTS”, the “soluble on expression in E. coli” value is reported as “soluble”. For “MSNVSSETVNLNNTSIVHMNMSNVTKLTASNYIMWSRQVHALLHGYGLTQYLDATKAAPAREITVNDVASVNPEYEAWSRQDQLIFSALIGTLSLTVQPTVSRAATSADVWATLAGTYAKPSRGHIKQLQHQIKQWKKDTRTIDEYVQGFINRFDQLALIGKIIDHEDQVDYILGGLPEDYKPIVDQMEGRDTPPNGCLTNSCDEDGCFIQMALNSV”, the “soluble on expression in E. coli” value was “soluble”. For “MSNVYVMALDFGNGFVKGKINDEKFVIPSRIGRKTNENNQLKGFVDNKLDVSEFIINGNNDEVLLFGNDLDKTTNTGKDTASTNDRYDIKSFKDLVECSIGLLAREVPEEVVNVVIATGMPSNEIGTDKQAKFEKLLNKSRLIEIDGIAKTINVKGVKIVAQPMGTLLDLNMENGKVFKAFTEGKYSVLDFGSGTTIIDTYQNMKRVEEESFVINKGTIDFYKRIASHVSKKSEGASITPRMIEKGLEYKQCKLNQKTVIDFKDEFYKEQDSLIEEVMSNFEITVGNINSIDRIIVTGGGANIHFDSLSHYYSDVFEKADDSQFSNVRGYEKLGELLKNKVEQESKRGSHHHHHH”, the “soluble on expression in E. coli” value was “soluble”. With “MSNYPLHQACMENEFFKVQELLHSKPSLLLQKDQDGRIPLHWSVSFQAHEITSFLLSKMENVNLDDYPDDSGWTPFHIACSVGNLEVVKSLYDRPLKPDLNKITNQGVTCLHLAVGKKWFEVSQFLIENGASVRIKDKFNQIPLHRAASVGSLKLIELLCGLGKSAVNWQDKQGWTPLFHALAEGHGDAAVLLVEKYGAEYDLVDNKGAKAEDVALNEQVKKFFLNNVVDKLAAALEHHHHHH” the “soluble on expression in E. coli” value was “soluble”.

From the DeepSol protein solubility set
